Residue numbers refer to the chain shown, from its start.
B1: P282FR9P1361_E12 (designed binder)
chain: LPAPKNLVVSRVTEDSARLSWTAPDAAFDSLGITYWESPYAGEAIVLTVPGSERSYDLTGLKPGTEYGVFILGVKGGYPSAPLSAIFTT
notes: FN3 domain
B2: P282FR9P1361_G9 (designed binder)
chain: B1 chain with L31F
notes: FN3 domain
B3: P282ER9P1360_G10 (designed binder)
chain: LPAPKNLVVSRVTEDSARLSWTAPDAAFDSFAIWYVEQHPFGEAIPLFVPGSERSYDLTGLKPGTEYTVGIRGVKGGNFSTPLIAHFTT
notes: FN3 domain
B4: P282ER9P1360_F11 (designed binder)
chain: LPAPKNLVVSRVTEDSARLSWIAPDAAFDSFSIAYVEAELVGEAIQLVVPGSERSYDLTGLKPGTEYWVVILGVKGGNPSNPLGASFTT
notes: FN3 domain
B5: P282ER9P1360_H3 (designed binder)
chain: B4 chain with I22T
notes: FN3 domain
B6: P283AR9P1362_B10 (designed binder)
chain: LPAPKNLVVSRVTEDSARLSWKRRWDSFDSFLIQYQESEKVGEAIVLTVPGSERSYDLTGLKPGTEYTVSIYGVDVEWFNGLPHHSNPLSAIFTT
notes: FN3 domain
B7: P282FR9P1361_H5 (designed binder)
chain: LPAPKNLVVSRVTEDSARLSWTAPDAAFDSFDIWYAEYGYPGEAIVLTVPGSERSYDLTGLKPGTEYDVAISGVKGGPRSYPLSAIFTT
notes: FN3 domain
B8: P282FR9P1361_H4 (designed binder)
chain: B7 chain with D32G, P41S, S72Y, P78S, R79P
notes: FN3 domain
B9: P282FR9P1361_F3 (designed binder)
chain: B7 chain with V74A
notes: FN3 domain
B10: P282FR9P1361_C7 (designed binder)
chain: B7 chain with D32G, A36H, Y40G, P41D, S72W, P78D, R79V
notes: FN3 domain
B11: P282FR9P1361_F11 (designed binder)
chain: B7 chain with D32G, A36R, Y40G, P41S, S72W, P78V
notes: FN3 domain
B12: P282FR9P1361_D3 (designed binder)
chain: B7 chain with K62N
notes: FN3 domain
B13: P282FR9P1361_F1 (designed binder)
chain: B7 chain with D32G, P41S, S72W, P78V
notes: FN3 domain
B14: P282FR9P1361_F2 (designed binder)
chain: B7 chain with V74I
notes: FN3 domain
B15: P282FR9P1361_A3 (designed binder)
chain: B7 chain with S72V, P78N
notes: FN3 domain
B16: P282ER9P1360_D11 (designed binder)
chain: LPAPKNLVVSRVTEDSARLSWTAPDAAFDSFGILYYEPVDSGEAITLPVPGSERSYDLTGLKPGTEYFVIIVGVKGGYPSIPLGAAFTT
notes: FN3 domain
B17: P282ER9P1360_E4 (designed binder)
chain: B16 chain with P50L, F68W, I70V, V72T, Y78A, I81T, A86I
notes: FN3 domain
B18: P282ER9P1360_G7 (designed binder)
chain: B16 chain with F68W, I70V, V72T, Y78A, I81T, A86I, F87L
notes: FN3 domain
B19: P282FR9P1361_F7 (designed binder)
chain: LPAPKNLVVSRVTEDSARLSWTAPDAAFDSFPIWYREYATGEAIVLTVPGSERSYDLTGLKPGTEYDVVITGVKGGYPSYPLSAIFTT
notes: FN3 domain
B20: P283AR9P1362_B2 (designed binder)
chain: LPAPKNLVVSRVTEDSARLSWAKHPNSFDSFLIQYQESEKVGEAIVLTVPGSERSYDLTGLKPGTEYTVSIYGVDVVVNELNNPLFSNPLSAIFTT
notes: FN3 domain
B21: P282ER9P1360_H2 (designed binder)
chain: LPAPKNLVVSRVTEDSARLSWTAPDAAFDSFSIAYVEAELVGEAIQLVVPGSERSYDLTGLKPGTEYWVVILGVKGGNPSNPLGASFTTT
notes: FN3 domain
B22: P282ER9P1360_H10 (designed binder)
chain: LPAPKNLVVSRVTEDSARLSWTAPDAAFDSFEIYYPEWPFAGEAIGLPVPGSERSYDLTGLKPGTEYFVVIYGVKGGELSEPLTAQFTT
notes: FN3 domain

Columns and labels:
In house human CD8A-Fc = biological target: T1, In house human CD8A-Fc (human, UniProt P01732 22-182, limits assumed); experiment: SPR (ProteOn), captured hCD8A-Fc
T1 construct: Captured on goat anti-human Fc on a ProteOn GLC chip; also called hCD8A-Fc; recombinant human CD8 alpha; not shown: linker with flag (and polyhistidine) tag and Fc of human IgG1

[1] = biological target: T2, cynomolgus monkey CD8A on primary cynomolgus monkey CD8+ T cells (cynomolgus monkey, UniProt P01732 23-235 (human entry)); experiment: flow cytometry, cyno CD8+ T cells, 2 uM FN3
T2 construct: also called Cyno CD8alpha

[2] = biological target: T2, cynomolgus monkey CD8A on primary …; experiment: flow cytometry, cyno CD8+ T cells, 0.2 uM FN3
[3] = biological target: T3, human CD8 alpha (CD8A) on primary human CD8+ T cells (human, UniProt P01732 22-235); experiment: flow cytometry, human CD8+ T cells, 2 uM FN3
T3 construct: whole, on cells; also called hCD8A

[4] = biological target: T3, human CD8 alpha (CD8A) on primary human …; experiment: flow cytometry, human CD8+ T cells, 0.2 uM FN3

T1 sequence (P01732 22-182 limits assumed): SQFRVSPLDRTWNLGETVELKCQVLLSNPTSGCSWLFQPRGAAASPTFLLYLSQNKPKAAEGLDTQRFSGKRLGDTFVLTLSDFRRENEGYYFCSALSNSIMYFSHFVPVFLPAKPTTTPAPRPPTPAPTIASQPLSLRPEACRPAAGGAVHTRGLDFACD
T2 sequence (P01732 other isoform, or with tags, fused parts or gaps limits assumed): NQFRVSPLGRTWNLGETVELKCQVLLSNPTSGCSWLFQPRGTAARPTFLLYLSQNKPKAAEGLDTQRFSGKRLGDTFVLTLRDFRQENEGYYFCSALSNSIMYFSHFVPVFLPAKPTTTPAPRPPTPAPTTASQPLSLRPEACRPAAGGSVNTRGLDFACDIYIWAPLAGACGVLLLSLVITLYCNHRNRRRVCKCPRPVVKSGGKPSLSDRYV
T3 sequence (P01732 22-235): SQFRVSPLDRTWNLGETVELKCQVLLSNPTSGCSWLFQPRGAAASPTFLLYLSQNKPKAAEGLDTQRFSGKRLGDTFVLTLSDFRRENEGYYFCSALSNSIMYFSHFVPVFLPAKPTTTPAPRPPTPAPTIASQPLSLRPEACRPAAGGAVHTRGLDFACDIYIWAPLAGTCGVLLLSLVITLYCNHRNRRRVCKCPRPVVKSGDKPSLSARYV

Binder	koff (In house human CD8A-Fc) [s⁻¹]	Cyno T-cell Binding 2 uM (MFI) [1] [MFI]	Cyno T-cell Binding 0.2 uM (MFI) [2] [MFI]	Human T-cell Binding 2 uM (MFI) [3] [MFI]	Human T-cell Binding 0.2 uM (MFI) [4] [MFI]
B1	0.00109	63500	15100	15800	1130
B2	0.00653	3750	666	859	297
B3	0.00207	62700	22600	27000	7050
B4	0.000225	48700	4410	22400	3860
B5	0.000242	66000	6440	20000	4270
B6	0.000139	35700	8380	15400	3700
B7	0.00577	11800	637	5730	698
B8	0.000317	26300	2500	13100	3740
B9	0.0107	9710	513	5160	674
B10	0.00224	11600	896	8540	1580
B11	0.00213	2290	384	2190	382
B12	0.00502	14800	764	6880	1030
B13	0.00126	9870	1390	5500	801
B14	0.00496	10900	462	4610	498
B15	0.000757	8480	740	7670	1660
B16	0.000142	76600	1940	36800	3210
B17	0.000191	60800	6870	26900	5030
B18	0.000221	69700	9920	25400	5870
B19	0.00114	1700	353	7000	1110
B20	0.00016	38800	6480	13600	3500
B21	0.000269	44600	4540	15200	3480
B22	0.00104	27100	1890	2510	506
